# Target: the molecule itself
protein,measurement,value
soluble recombinant ectodomain of murine FIBCD1 (mFIBCD1^Ecto) (domain or fragment) NHTHTPGTAPPPIVSTGTAGANSALVTVERADSSHLSLLIDPRCPDLTDSFARLEGIQASILRALSEHQAQPRLDGAPELLDALADQLPRLLTRASELQAECAGLRKGHSLLGQGLSTLQSEQGRLIQLLSESQGHMAHLVNSVSDVLEALQRERGLGRPRVKADLQRAPSRGARPRGCANGSRPRDCLDVLLSGQQDDGVYSIFPTHYPAGFQVYCDMRTDGGGWTVFQRREDGSVNFFRGWEAYREGFGKLTGEHWLGLKRIHALTTQAAYELHVDLEDFDNGTAYAHYGSFGVGLFSVDPEEDGYPLTVADYSGTAGDSLLKHSGMRFTTKDRDSDHSENNCAAFYRGAWWYRNCHTSNLNGQYLRGAHASYADGVEWSSWTGWQYSLKFSEMKIRPVREDR,stoichiometry N,4

# Source: article PMC6888979 (The Journal of Experimental Medicine, 2019)
